Results as given in patent US20180140578A1 (University of Texas, published 2018).
Where a chain is given by its changes, count along the chain named. Names and notes keep the numbering of the source.

How the values were obtained:
[1] = molecular target: T1, DCAF15-3xFLAG (human, UniProt Q66K64 1-600); experiment: pull-down of 100 nM RBM39Δ150 P272S by DCAF15-3xFLAG on anti-FLAG beads with rising indisulam, western blot (FIG. 4C)
T1 construct: also called DDB1/DCAF15-3xFLAG; not shown: C-terminal 3xFLAG tag
T1 sequence (Q66K64 whole entry): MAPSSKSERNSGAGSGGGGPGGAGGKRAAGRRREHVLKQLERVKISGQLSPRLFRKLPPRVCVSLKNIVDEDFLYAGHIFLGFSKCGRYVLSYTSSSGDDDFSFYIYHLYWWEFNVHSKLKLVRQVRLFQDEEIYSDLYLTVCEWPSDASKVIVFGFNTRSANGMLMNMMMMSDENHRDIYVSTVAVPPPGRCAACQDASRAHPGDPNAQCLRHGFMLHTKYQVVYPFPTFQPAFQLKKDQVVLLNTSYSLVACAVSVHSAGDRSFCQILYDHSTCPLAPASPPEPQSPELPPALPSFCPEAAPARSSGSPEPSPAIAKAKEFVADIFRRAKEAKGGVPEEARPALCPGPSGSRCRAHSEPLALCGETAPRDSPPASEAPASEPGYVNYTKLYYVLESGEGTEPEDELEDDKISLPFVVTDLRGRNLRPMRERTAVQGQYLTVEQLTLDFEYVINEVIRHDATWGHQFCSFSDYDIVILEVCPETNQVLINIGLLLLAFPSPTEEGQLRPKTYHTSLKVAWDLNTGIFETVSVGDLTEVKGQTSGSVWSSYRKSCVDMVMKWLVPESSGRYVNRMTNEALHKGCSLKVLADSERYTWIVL

[2] = molecular target: T1, DCAF15-3xFLAG; experiment: pull-down by DCAF15-3xFLAG on anti-FLAG beads, western blot (FIG. 4C)
[3] = molecular target: T2, CUL4A (human, UniProt Q13619 1-759, limits assumed); experiment: anti-FLAG co-immunoprecipitation from HCT-116 cells, western blot (FIG. 3E)
T2 construct: also called Cullin 4A
T2 sequence (Q13619 whole entry): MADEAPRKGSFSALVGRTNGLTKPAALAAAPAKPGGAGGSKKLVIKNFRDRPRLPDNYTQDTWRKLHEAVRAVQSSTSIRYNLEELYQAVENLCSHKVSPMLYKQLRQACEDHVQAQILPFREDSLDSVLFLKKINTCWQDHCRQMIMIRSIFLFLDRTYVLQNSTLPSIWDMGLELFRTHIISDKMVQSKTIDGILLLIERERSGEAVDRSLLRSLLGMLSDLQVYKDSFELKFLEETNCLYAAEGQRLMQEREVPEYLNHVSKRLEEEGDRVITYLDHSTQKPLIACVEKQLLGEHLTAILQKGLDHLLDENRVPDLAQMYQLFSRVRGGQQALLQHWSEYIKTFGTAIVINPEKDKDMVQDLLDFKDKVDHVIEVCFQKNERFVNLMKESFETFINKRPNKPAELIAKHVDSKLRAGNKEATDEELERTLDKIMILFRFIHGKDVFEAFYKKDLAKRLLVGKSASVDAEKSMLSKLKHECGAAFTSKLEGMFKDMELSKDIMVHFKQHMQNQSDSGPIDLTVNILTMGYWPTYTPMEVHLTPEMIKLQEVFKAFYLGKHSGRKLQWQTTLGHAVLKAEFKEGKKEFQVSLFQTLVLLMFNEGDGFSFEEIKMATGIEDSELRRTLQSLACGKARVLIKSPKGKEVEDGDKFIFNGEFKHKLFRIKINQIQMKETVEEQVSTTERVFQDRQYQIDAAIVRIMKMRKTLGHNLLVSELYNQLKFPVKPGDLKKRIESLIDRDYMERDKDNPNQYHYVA

[4] = molecular target: T3, CUL4B (human, UniProt Q13620 1-913, limits assumed); experiment: as above
T3 construct: also called Cullin 4B
T3 sequence (Q13620 whole entry): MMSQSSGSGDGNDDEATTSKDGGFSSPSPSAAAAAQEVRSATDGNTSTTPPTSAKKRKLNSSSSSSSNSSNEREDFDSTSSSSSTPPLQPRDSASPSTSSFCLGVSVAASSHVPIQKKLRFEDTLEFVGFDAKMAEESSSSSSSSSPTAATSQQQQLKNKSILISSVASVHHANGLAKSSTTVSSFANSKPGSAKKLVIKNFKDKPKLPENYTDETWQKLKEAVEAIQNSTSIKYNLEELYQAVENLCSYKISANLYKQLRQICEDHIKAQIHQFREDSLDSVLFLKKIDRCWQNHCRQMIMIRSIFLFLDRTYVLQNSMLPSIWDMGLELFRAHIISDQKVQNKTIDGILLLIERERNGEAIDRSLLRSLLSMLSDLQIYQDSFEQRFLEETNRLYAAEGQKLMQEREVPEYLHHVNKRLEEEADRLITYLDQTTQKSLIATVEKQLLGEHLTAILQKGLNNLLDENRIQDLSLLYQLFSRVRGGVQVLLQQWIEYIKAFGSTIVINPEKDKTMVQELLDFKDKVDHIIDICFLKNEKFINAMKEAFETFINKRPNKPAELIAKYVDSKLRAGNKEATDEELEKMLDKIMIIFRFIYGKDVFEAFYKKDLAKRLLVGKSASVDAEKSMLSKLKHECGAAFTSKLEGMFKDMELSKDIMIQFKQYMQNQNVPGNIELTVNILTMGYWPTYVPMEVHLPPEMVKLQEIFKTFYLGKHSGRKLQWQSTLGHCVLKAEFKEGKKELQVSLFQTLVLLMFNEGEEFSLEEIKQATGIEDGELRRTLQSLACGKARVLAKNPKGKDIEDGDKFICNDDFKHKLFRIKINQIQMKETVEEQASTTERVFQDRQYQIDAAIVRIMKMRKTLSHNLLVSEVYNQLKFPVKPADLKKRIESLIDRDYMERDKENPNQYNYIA

[5] = molecular target: T4, DDB1 (human, UniProt Q16531 2-1140); experiment: anti-FLAG immunopurification from HCT-116 lysate supplemented with indisulam, western blot (FIG. 4A)
T4 construct: also called Q16531_DDB1_HUMAN
T4 sequence (Q16531 2-1140 limits assumed): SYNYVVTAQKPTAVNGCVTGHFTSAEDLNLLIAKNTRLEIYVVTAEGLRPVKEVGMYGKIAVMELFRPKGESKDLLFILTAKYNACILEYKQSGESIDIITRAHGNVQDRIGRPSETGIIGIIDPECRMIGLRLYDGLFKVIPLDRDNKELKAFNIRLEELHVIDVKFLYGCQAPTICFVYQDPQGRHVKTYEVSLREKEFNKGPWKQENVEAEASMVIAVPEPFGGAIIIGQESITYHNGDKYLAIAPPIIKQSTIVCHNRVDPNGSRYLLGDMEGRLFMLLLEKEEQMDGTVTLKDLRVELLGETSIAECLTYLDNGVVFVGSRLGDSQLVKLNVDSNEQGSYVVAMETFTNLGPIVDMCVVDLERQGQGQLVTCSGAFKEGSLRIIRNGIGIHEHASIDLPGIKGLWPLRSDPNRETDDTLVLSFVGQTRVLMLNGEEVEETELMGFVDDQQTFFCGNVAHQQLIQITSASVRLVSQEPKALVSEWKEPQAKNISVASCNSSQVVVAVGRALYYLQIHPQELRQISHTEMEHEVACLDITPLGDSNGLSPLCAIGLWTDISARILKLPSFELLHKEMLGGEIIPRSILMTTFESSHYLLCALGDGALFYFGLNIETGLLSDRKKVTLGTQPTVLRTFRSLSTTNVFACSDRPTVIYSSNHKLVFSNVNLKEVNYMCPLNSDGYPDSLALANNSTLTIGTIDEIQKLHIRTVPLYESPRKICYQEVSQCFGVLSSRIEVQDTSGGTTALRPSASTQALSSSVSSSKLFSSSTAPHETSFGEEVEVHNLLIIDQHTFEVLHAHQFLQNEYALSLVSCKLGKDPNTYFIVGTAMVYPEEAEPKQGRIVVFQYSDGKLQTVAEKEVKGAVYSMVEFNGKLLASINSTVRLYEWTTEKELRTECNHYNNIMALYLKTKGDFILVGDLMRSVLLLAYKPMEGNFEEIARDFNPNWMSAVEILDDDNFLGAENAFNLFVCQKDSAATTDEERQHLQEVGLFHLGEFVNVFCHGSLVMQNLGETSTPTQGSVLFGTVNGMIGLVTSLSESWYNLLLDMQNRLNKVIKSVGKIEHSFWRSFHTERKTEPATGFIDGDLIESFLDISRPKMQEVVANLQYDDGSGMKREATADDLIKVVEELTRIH

B1: RBM39Δ150 P272S (other, human, UniProt Q14498 151-530, looked up)
chain: DARTVFCMQLAARIRPRDLEEFFSTVGKVRDVRMISDRNSRRSKGIAYVEFVDVSSVPLAIGLTGQRVLGVPIIVQASQAEKNRAAAMANNLQKGSAGPMRLYVGSLHFNITEDMLRGIFESFGRIESIQLMMDSETGRSKGYGFITFSDSECAKKALEQLNGFELAGRPMKVGHVTERTDASSASSFLDSDELERTGIDLGTTGRLQLMARLAEGTGLQIPPAAQQALQMSGSLAFGAVAEFSFVIDLQTRLSQQTEASALAAAASVQPLATQCFQLSNMFNPQTEEEVGWDTEIKDDVIEECNKHGGVIHIYVDKNSAQGNVYVKCPSIAAAIAAVNALHGRWFAGKMITAAYVPLPTYHNLFPDSMTATQLLVPSRR
notes: domain: RRM1, RRM2, and RRM3 domains; Sf9 expression as for RBM39Δ150
B1 was tested, and the “fold higher indisulam concentration required for recruitment, against wild type RBM39Δ150” value [1] was 100 fold.

B2: RBM39Δ150 E271Q (other, human, UniProt Q14498 151-530, looked up)
chain: B1 chain with E121Q, S122P
notes: domain: RRM1, RRM2, and RRM3 domains; Sf9 expression as for RBM39Δ150; also called E271Q variant of RBM39Δ150
B2: no binding (tested: 10 µM indisulam) [2].

B3: RBM39 G268V-3xFLAG (other, human, UniProt Q14498 1-530, looked up)
chain: MADDIDIEAMLEAPYKKDENKLSSANGHEERSKKRKKSKSRSRSHERKRSKSKERKRSRDRERKKSKSRERKRSRSKERRRSRSRSRDRRFRGRYRSPYSGPKFNSAIRGKIGLPHSIKLSRRRSRSKSPFRKDKSPVREPIDNLTPEERDARTVFCMQLAARIRPRDLEEFFSTVGKVRDVRMISDRNSRRSKGIAYVEFVDVSSVPLAIGLTGQRVLGVPIIVQASQAEKNRAAAMANNLQKGSAGPMRLYVGSLHFNITEDMLRVIFEPFGRIESIQLMMDSETGRSKGYGFITFSDSECAKKALEQLNGFELAGRPMKVGHVTERTDASSASSFLDSDELERTGIDLGTTGRLQLMARLAEGTGLQIPPAAQQALQMSGSLAFGAVAEFSFVIDLQTRLSQQTEASALAAAASVQPLATQCFQLSNMFNPQTEEEVGWDTEIKDDVIEECNKHGGVIHIYVDKNSAQGNVYVKCPSIAAAIAAVNALHGRWFAGKMITAAYVPLPTYHNLFPDSMTATQLLVPSRR
notes: From HCT-116 cells; for the ubiquitination assay expressed from pCDNA3.1 in 293T cells; also called RBM39-3xFLAG G268V; not shown: C-terminal 3xFLAG tag
B3: no binding (tested: 10 µM indisulam) [3]; no binding (tested: 10 µM indisulam) [4]; no binding (tested: 10 µM indisulam) [5].
